# How the values were obtained:
# [1] = molecular target: HIV-1 93TH057 gp120 coree (HIV-1); assay: PDB 5te6 structure, PISA interface
# [2] = molecular target: HIV-1 Env of pseudovirus 191955_A11 (clade A, T/F) (HIV-1); assay: cell-based or functional assay
# [3] = molecular target: HIV-1 Env of pseudovirus 3016.v5.c45 (clade D) (HIV-1); assay: cell-based or functional assay
# [4] = molecular target: HIV-1 Env of pseudovirus 3103.v3.c10 (clade ACD) (HIV-1); assay: cell-based or functional assay
# [5] = molecular target: HIV-1 Env of pseudovirus 620345.c01 (clade CRF01_AE) (HIV-1); assay: cell-based or functional assay
# [6] = molecular target: HIV-1 Env of pseudovirus 62357_14_D3_4589 (clade B, T/F) (HIV-1); assay: cell-based or functional assay
# [7] = molecular target: HIV-1 Env of pseudovirus 6545.v4.c1 (HIV-1); assay: cell-based or functional assay
# [8] = molecular target: HIV-1 Env of pseudovirus 6952.v1.c20 (clade CD) (HIV-1); assay: cell-based or functional assay
# [9] = molecular target: HIV-1 Env of pseudovirus AC10.0.29 (clade B) (HIV-1); assay: cell-based or functional assay
# [10] = molecular target: HIV-1 Env of pseudovirus BJOX028000.10.3 (clade CRF01_AE, T/F) (HIV-1); assay: cell-based or functional assay
# [11] = molecular target: HIV-1 Env of pseudovirus CAP210.2.00.E8 (clade C) (HIV-1); assay: cell-based or functional assay
# [12] = molecular target: HIV-1 Env of pseudovirus CNE20 (clade BC) (HIV-1); assay: cell-based or functional assay
# [13] = molecular target: HIV-1 Env of pseudovirus Ce1086_B2 (clade C, T/F) (HIV-1); assay: cell-based or functional assay
# [14] = molecular target: HIV-1 Env of pseudovirus Ce1172_H1 (clade C, T/F) (HIV-1); assay: cell-based or functional assay
# [15] = molecular target: HIV-1 Env of pseudovirus Du172.17 (clade C) (HIV-1); assay: cell-based or functional assay
# [16] = molecular target: HIV-1 Env of pseudovirus Du422.1 (clade C) (HIV-1); assay: cell-based or functional assay
# [17] = molecular target: HIV-1 Env of pseudovirus PVO.4 (clade B) (HIV-1); assay: cell-based or functional assay
# [18] = molecular target: HIV-1 Env of pseudovirus Q259.d2.17 (clade A) (HIV-1); assay: cell-based or functional assay
# [19] = molecular target: HIV-1 Env of pseudovirus R1166.c01 (clade CRF01_AE) (HIV-1); assay: cell-based or functional assay
# [20] = molecular target: HIV-1 Env of pseudovirus T250-4 (clade CRF02_AG) (HIV-1); assay: cell-based or functional assay
# [21] = molecular target: HIV-1 Env of pseudovirus X1254_c3 (clade G) (HIV-1); assay: cell-based or functional assay
# [22] = molecular target: HIV-1 Env of pseudovirus X2088_c9 (clade G) (HIV-1); assay: cell-based or functional assay
# [23] = molecular target: MuLV Env pseudovirus (negative control) (MuLV); assay: cell-based or functional assay
substance,measurement,setting,value
N6 Fab,Ratio of OD/ID buried surface area,[1],7.58
same,"buried surface area, CDR H1",[1],38 Å^2
same,"buried surface area, CDR H2",[1],621 Å^2
same,"buried surface area, CDR L1",[1],43 Å^2
same,"buried surface area, CDR L2",[1],0 Å^2
same,"buried surface area, CDR L3",[1],172 Å^2
same,"buried surface area, CDRH3",[1],123 Å^2
same,"buried surface area, Fab heavy and light chain total",[1],1180 Å^2
same,"buried surface area, Fab heavy chain total",[1],928 Å^2
same,"buried surface area, Fab light chain total",[1],251 Å^2
same,"buried surface area, gp120 CD4 binding loop of OD",[1],206 Å^2
same,"buried surface area, gp120 Loop D of OD",[1],332 Å^2
same,"buried surface area, gp120 Loop V5 of OD",[1],339 Å^2
same,"buried surface area, gp120 inner domain (ID)",[1],132 Å^2
same,"buried surface area, gp120 outer domain (OD)",[1],1000 Å^2
same,"buried surface area, gp120 total",[1],1130 Å^2
same,"buried surface area, heavy chain FWR",[1],146 Å^2
same,"buried surface area, light chain FWR",[1],36 Å^2
N49P7-54TY (antibody),"IC50, titer in TZM.bl cells",[2],3.04 µg/mL
same,"IC80, titer in TZM.bl cells",[2],> 25 µg/mL
same,MPI,[2],72
same,"IC50, titer in TZM.bl cells",[3],0.206 µg/mL
same,"IC80, titer in TZM.bl cells",[3],1.91 µg/mL
same,MPI,[3],92
same,"IC50, titer in TZM.bl cells",[4],0.151 µg/mL
same,"IC80, titer in TZM.bl cells",[4],0.55 µg/mL
same,MPI,[4],100
same,"IC50, titer in TZM.bl cells",[5],> 25 µg/mL
same,"IC80, titer in TZM.bl cells",[5],> 25 µg/mL
same,MPI,[5],0
same,"IC50, titer in TZM.bl cells",[6],0.055 µg/mL
same,"IC80, titer in TZM.bl cells",[6],0.192 µg/mL
same,MPI,[6],100
same,"IC50, titer in TZM.bl cells",[7],3.01 µg/mL
same,"IC80, titer in TZM.bl cells",[7],> 25 µg/mL
same,MPI,[7],74
same,"IC50, titer in TZM.bl cells",[8],> 25 µg/mL
same,"IC80, titer in TZM.bl cells",[8],> 25 µg/mL
same,MPI,[8],20
same,"IC50, titer in TZM.bl cells",[9],> 25 µg/mL
same,"IC80, titer in TZM.bl cells",[9],> 25 µg/mL
same,MPI,[9],40
same,"IC50, titer in TZM.bl cells",[10],0.009 µg/mL
same,"IC80, titer in TZM.bl cells",[10],0.044 µg/mL
same,MPI,[10],100
same,"IC50, titer in TZM.bl cells",[11],0.691 µg/mL
same,"IC80, titer in TZM.bl cells",[11],3.33 µg/mL
same,MPI,[11],97
same,"IC50, titer in TZM.bl cells",[12],0.046 µg/mL
same,"IC80, titer in TZM.bl cells",[12],0.16 µg/mL
same,MPI,[12],100
same,"IC50, titer in TZM.bl cells",[13],0.067 µg/mL
same,"IC80, titer in TZM.bl cells",[13],0.339 µg/mL
same,MPI,[13],100
same,"IC50, titer in TZM.bl cells",[14],> 25 µg/mL
same,"IC80, titer in TZM.bl cells",[14],> 25 µg/mL
same,MPI,[14],23
same,"IC50, titer in TZM.bl cells",[15],0.124 µg/mL
same,"IC80, titer in TZM.bl cells",[15],0.529 µg/mL
same,MPI,[15],100
same,"IC50, titer in TZM.bl cells",[16],0.402 µg/mL
same,"IC80, titer in TZM.bl cells",[16],2.02 µg/mL
same,MPI,[16],96
same,"IC50, titer in TZM.bl cells",[17],0.079 µg/mL
same,"IC80, titer in TZM.bl cells",[17],0.314 µg/mL
same,MPI,[17],100
same,"IC50, titer in TZM.bl cells",[18],0.132 µg/mL
same,"IC80, titer in TZM.bl cells",[18],1.13 µg/mL
same,MPI,[18],95
same,"IC50, titer in TZM.bl cells",[19],0.131 µg/mL
same,"IC80, titer in TZM.bl cells",[19],0.47 µg/mL
same,MPI,[19],100
same,"IC50, titer in TZM.bl cells",[20],1.02 µg/mL
same,"IC80, titer in TZM.bl cells",[20],19.6 µg/mL
same,MPI,[20],83
same,"IC50, titer in TZM.bl cells",[21],0.145 µg/mL
same,"IC80, titer in TZM.bl cells",[21],0.599 µg/mL
same,MPI,[21],100
same,"IC50, titer in TZM.bl cells",[22],0.172 µg/mL
same,"IC80, titer in TZM.bl cells",[22],0.572 µg/mL
same,MPI,[22],100
same,"IC50, titer in TZM.bl cells",[23],> 25 µg/mL
same,"IC80, titer in TZM.bl cells",[23],> 25 µg/mL
same,MPI,[23],0

# Reference: patent publication US20230002480A1
